In article PMC7430671 (2020) one finds response data, which are given here for 5 variants.

The labels stand for the following.
B1: RapZ_(1–279), BACTH fusion [E. coli] / itself (parent complex)
chain: MVLMIVSGRSGSGKSVALRALEDMGFYCVDNLPVVLLPDLARTLADREISAAVSIDVRNMPESPEIFEQAMSNLPDAFSPQLLFLDADRNTLIRRYSDTRRLHPLSSKNLSLESAIDKESDLLEPLRSRADLIVDTSEMSVHELAEMLRTRLLGKRERELTMVFESFGFKHGIPIDADYVFDVRFLPNPHWDPKLRPMTGLDKPVAAFLDRHTEVHNFIYQTRSYLELWLPMLETNNRSYLTVAIGCTGGKHRSVYIAEQLADYFRSRGKNVQSRHRTL
B2: RapZ_(1–279), BACTH fusion [E. coli] / full-length RNase E (RneFL), BACTH fusion [E. coli] (parent complex)
chain 1: B1 chain
chain 2: not shown

The variants in one assay derive from B1. The assay is described as follows: BACTH assay (self-interaction; β-galactosidase activity); bottom panel; same RapZ1-279 variant fused to T18 and to T25; mean ± SD, n ≥ 2; parent: 4.1e+03; read off a plot.
In the case of MVLMIVSGRSGSGKSVALRALEDMGFYCVDNLPVVLLPDLARTLADREISAAVSIDVRNMPESPEIFEQAMSNLPDAFSPQLLFLDADRNTLIRRYSDTRRLHPLSSKNLSLESAIDKESDLLEPLRSRADLIVDTSEMSVHELAEMLRTRLLGKRERELTMVFESFGFKHGIPIDADYVFDVRFLPNPHWDPKLRPMTGLDKPVAAFLDRHTEVHNFIYQTRSYLELWLPMLETNNRSYLTVAIGCTGGKHRSVYIAEQLADYFRSRGKNVQSRHRGL [chain 1 T278G], the response was approximately 4000 Miller units.

As to MVLMIVSGRSGSGKSVALRALEDMGFYCVDNLPVVLLPDLARTLADREISAAVSIDVRNMPESPEIFEQAMSNLPDAFSPQLLFLDADRNTLIRRYSDTRRLHPLSSKNLSLESAIDKESDLLEPLRSRADLIVDTSEMSVHELAEMLRTRLLGKRERELTMVFESFGFKHGIPIDADYVFDVRFLPNPHWDPKLRPMTGLDKPVAAFLDRHTEVHNFIYQTRSYLELWLPMLETNNRSYLTVAIGCTGGKHRSVYIAEQLADYFRSRGKNVQSRHRTG [chain 1 L279G], the response was approximately 3300 Miller units.

Variants of B2 are the subject of the next assay. As to the kind of experiment: BACTH assay (β-galactosidase activity); top panel; T18-RapZ1-279 variant with T25-RneFL (pYG100); mean ± SD, n ≥ 2; parent: 1.7e+03; read off a plot.
For chain 1 L279G, the response was approximately 100 Miller units.

Regarding chain 1 T278G, the response was approximately 980 Miller units.

Take chain 1 T278G, chain 1 L279G: the response is approximately 50 Miller units.
